Reference: paper PMC2852676 (Current Biology, 2010)

Biological target: T1, Smc3 hinge domain fusion protein, wild type (Smc3H) (yeast, UniProt P47037 495-705)
T1 sequence: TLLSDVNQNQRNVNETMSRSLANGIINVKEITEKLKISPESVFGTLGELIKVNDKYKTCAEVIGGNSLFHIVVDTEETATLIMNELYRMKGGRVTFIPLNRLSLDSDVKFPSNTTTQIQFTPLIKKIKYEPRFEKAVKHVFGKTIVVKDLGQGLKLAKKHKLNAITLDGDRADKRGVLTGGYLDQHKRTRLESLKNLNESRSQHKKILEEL
Experiment: SEC

- binding result: binds
B1: Smc1 hinge domain fusion protein, wild type (Smc1H) (domain or fragment)
chain: SANQRETMKERKLRENIAMLKRFFPGVKGLVHDLCHPKKEKYGLAVSTILGKNFDSVIVENLTVAQECIAFLKKQRAGTASFIPLDTIETELPTLSLPDSQDYILSINAIDYEPEYEKAMQYVCGDSIICNTLNIAKDLKWKKGIRGKLVTIEGALIHKAGLMTGGISGDANNRWDKEE
